Article PMC9695261

Biological target: Kansetin (human) (UniProt Q9BYF1)
Assay: SPR

Row | Substance | Kd
1 | His-tagged RBD of the SARS-CoV-2 Omicron BA.5 strain (domain or fragment) | 33.1 nM
2 | Spike S1+S2 trimer of the SARS-CoV-2 Omicron BA.5 strain (natural protein) | 1.22 nM
